Source: IntAct's records for PubMed 16890161

B1: Low-density lipoprotein receptor-related protein 6 (Homo sapiens), O75581 (parent)
chain: MGAVLRSLLACSFCVLLRAAPLLLYANRRDLRLVDATNGKENATIVVGGLEDAAAVDFVFSHGLIYWSDVSEEAIKRTEFNKTESVQNVVVSGLLSPDGLACDWLGEKLYWTDSETNRIEVSNLDGSLRKVLFWQELDQPRAIALDPSSGFMYWTDWGEVPKIERAGMDGSSRFIIINSEIYWPNGLTLDYEEQKLYWADAKLNFIHKSNLDGTNRQAVVKGSLPHPFALTLFEDILYWTDWSTHSILACNKYTGEGLREIHSDIFSPMDIHAFSQQRQPNATNPCGIDNGGCSHLCLMSPVKPFYQCACPTGVKLLENGKTCKDGATELLLLARRTDLRRISLDTPDFTDIVLQLEDIRHAIAIDYDPVEGYIYWTDDEVRAIRRSFIDGSGSQFVVTAQIAHPDGIAVDWVARNLYWTDTGTDRIEVTRLNGTMRKILISEDLEEPRAIVLDPMVGYMYWTDWGEIPKIERAALDGSDRVVLVNTSLGWPNGLALDYDEGKIYWGDAKTDKIEVMNTDGTGRRVLVEDKIPHIFGFTLLGDYVYWTDWQRRSIERVHKRSAEREVIIDQLPDLMGLKATNVHRVIGSNPCAEENGGCSHLCLYRPQGLRCACPIGFELISDMKTCIVPEAFLLFSRRADIRRISLETNNNNVAIPLTGVKEASALDFDVTDNRIYWTDISLKTISRAFMNGSALEHVVEFGLDYPEGMAVDWLGKNLYWADTGTNRIEVSKLDGQHRQVLVWKDLDSPRALALDPAEGFMYWTEWGGKPKIDRAAMDGSERTTLVPNVGRANGLTIDYAKRRLYWTDLDTNLIESSNMLGLNREVIADDLPHPFGLTQYQDYIYWTDWSRRSIERANKTSGQNRTIIQGHLDYVMDILVFHSSRQSGWNECASSNGHCSHLCLAVPVGGFVCGCPAHYSLNADNRTCSAPTTFLLFSQKSAINRMVIDEQQSPDIILPIHSLRNVRAIDYDPLDKQLYWIDSRQNMIRKAQEDGSQGFTVVVSSVPSQNLEIQPYDLSIDIYSRYIYWTCEATNVINVTRLDGRSVGVVLKGEQDRPRAVVVNPEKGYMYFTNLQERSPKIERAALDGTEREVLFFSGLSKPIALALDSRLGKLFWADSDLRRIESSDLSGANRIVLEDSNILQPVGLTVFENWLYWIDKQQQMIEKIDMTGREGRTKVQARIAQLSDIHAVKELNLQEYRQHPCAQDNGGCSHICLVKGDGTTRCSCPMHLVLLQDELSCGEPPTCSPQQFTCFTGEIDCIPVAWRCDGFTECEDHSDELNCPVCSESQFQCASGQCIDGALRCNGDANCQDKSDEKNCEVLCLIDQFRCANGQCIGKHKKCDHNVDCSDKSDELDCYPTEEPAPQATNTVGSVIGVIVTIFVSGTVYFICQRMLCPRMKGDGETMTNDYVVHGPASVPLGYVPHPSSLSGSLPGMSRGKSMISSLSIMGGSSGPPYDRAHVTGASSSSSSSTKGTYFPAILNPPPSPATERSHYTMEFGYSSNSPSTHRSYSYRPYSYRHFAPPTTPCSTDVCDSDYAPSRRMTSVATAKGYTSDLNYDSEPVPPPPTPRSQYLSAEENYESCPPSPYTERSYSHHLYPPPPSPCTDSS

Variants of: B1
Conditions: with axin1_rat Axin1, O70239
axin1_rat Axin1, O70239, sequence (O70239 whole entry): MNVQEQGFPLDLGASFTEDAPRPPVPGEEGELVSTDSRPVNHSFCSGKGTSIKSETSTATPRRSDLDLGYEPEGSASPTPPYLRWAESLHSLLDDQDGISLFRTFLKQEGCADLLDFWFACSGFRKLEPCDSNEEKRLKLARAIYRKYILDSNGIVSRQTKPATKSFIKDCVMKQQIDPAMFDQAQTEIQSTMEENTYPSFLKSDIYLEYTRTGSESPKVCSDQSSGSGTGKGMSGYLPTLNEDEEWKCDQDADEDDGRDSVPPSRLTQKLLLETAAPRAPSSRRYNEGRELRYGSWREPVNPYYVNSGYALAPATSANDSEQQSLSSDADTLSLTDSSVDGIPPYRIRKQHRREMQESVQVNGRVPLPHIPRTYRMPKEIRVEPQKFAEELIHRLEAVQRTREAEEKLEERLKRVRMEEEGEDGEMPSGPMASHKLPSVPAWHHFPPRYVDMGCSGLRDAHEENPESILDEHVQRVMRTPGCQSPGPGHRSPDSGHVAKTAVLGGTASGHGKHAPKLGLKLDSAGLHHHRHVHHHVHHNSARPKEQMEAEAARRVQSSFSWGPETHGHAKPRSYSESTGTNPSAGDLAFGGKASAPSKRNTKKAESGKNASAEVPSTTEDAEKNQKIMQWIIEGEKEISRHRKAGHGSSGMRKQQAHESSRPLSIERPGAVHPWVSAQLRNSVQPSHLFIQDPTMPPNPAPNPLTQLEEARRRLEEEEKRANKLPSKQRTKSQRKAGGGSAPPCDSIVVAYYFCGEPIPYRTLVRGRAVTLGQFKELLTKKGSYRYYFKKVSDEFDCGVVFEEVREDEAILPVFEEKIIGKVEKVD

| Variant | effect of a mutation on the interaction |
| --- | --- |
| S1490A | decreasing interaction |
